T1: KIF5B-Δhinge (Δ505-610)-mScarlet-StrepII (human, UniProt P33176 1-963, Δ505-610)
T1 construct: KIF5B, human, full length with aa 505-610 deleted (aa 1-504 joined to aa 611-963); also called delta-hinge mutant; delta-hinge KHC mutant; source: Sf9 (baculovirus), purified (Streptactin XT, SEC; the fractions that eluted like the wild type were used); not shown: mScarlet, C-terminal, kept
T1 sequence (looked up): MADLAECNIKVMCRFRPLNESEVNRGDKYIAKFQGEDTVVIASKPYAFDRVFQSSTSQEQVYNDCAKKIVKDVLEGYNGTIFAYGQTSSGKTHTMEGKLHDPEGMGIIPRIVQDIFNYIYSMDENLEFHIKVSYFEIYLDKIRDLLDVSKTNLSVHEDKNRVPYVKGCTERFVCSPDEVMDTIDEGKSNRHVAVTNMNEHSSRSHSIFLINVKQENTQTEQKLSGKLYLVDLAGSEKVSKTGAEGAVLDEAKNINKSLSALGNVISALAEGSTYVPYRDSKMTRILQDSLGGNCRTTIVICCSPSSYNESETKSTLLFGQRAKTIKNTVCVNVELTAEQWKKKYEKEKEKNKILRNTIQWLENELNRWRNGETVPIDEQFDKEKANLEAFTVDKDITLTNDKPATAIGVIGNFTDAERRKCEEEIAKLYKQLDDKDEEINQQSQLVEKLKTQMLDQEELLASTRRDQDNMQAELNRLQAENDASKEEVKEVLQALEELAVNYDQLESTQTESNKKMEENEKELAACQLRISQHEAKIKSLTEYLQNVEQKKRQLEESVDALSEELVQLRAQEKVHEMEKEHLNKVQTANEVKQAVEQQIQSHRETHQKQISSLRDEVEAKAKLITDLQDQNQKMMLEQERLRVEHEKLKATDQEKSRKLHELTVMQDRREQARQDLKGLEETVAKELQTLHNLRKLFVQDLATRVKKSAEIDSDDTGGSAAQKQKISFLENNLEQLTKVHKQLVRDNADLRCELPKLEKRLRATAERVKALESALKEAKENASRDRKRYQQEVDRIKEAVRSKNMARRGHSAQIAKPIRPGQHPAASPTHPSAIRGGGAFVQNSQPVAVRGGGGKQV

B1: full-length human KIF5C-mScarlet-StrepII (natural protein, UniProt O60282 1-957, looked up)
chain: MADPAECSIKVMCRFRPLNEAEILRGDKFIPKFKGDETVVIGQGKPYVFDRVLPPNTTQEQVYNACAKQIVKDVLEGYNGTIFAYGQTSSGKTHTMEGKLHDPQLMGIIPRIAHDIFDHIYSMDENLEFHIKVSYFEIYLDKIRDLLDVSKTNLAVHEDKNRVPYVKGCTERFVSSPEEVMDVIDEGKANRHVAVTNMNEHSSRSHSIFLINIKQENVETEKKLSGKLYLVDLAGSEKVSKTGAEGAVLDEAKNINKSLSALGNVISALAEGTKTHVPYRDSKMTRILQDSLGGNCRTTIVICCSPSVFNEAETKSTLMFGQRAKTIKNTVSVNLELTAEEWKKKYEKEKEKNKTLKNVIQHLEMELNRWRNGEAVPEDEQISAKDQKNLEPCDNTPIIDNIAPVVAGISTEEKEKYDEEISSLYRQLDDKDDEINQQSQLAEKLKQQMLDQDELLASTRRDYEKIQEELTRLQIENEAAKDEVKEVLQALEELAVNYDQKSQEVEDKTRANEQLTDELAQKTTTLTTTQRELSQLQELSNHQKKRATEILNLLLKDLGEIGGIIGTNDVKTLADVNGVIEEEFTMARLYISKMKSEVKSLVNRSKQLESAQMDSNRKMNASERELAACQLLISQHEAKIKSLTDYMQNMEQKRRQLEESQDSLSEELAKLRAQEKMHEVSFQDKEKEHLTRLQDAEEMKKALEQQMESHREAHQKQLSRLRDEIEEKQKIIDEIRDLNQKLQLEQEKLSSDYNKLKIEDQEREMKLEKLLLLNDKREQAREDLKGLEETVSRELQTLHNLRKLFVQDLTTRVKKSVELDNDDGGGSAAQKQKISFLENNLEQLTKVHKQLVRDNADLRCELPKLEKRLRATAERVKALESALKEAKENAMRDRKRYQQEVDRIKEAVRAKNMARRAHSAQIAKPIRPGHYPASSPTAVHAIRGGGGSSSNSTHYQK
notes: kinesin heavy chain KIF5C, human, cDNA BC110287, full length; 2x Prescission protease sites lie between KIF5C and mScarlet; also called KHC; source: Sf9 (baculovirus), purified (Streptactin XT, SEC); also co-expressed with KLC1 and co-purified; not shown: mScarlet, C-terminal, kept
B2: 6xHis-2xStrepII-sfGFP-KLC1-CC (aa 1-200) (domain or fragment, human, UniProt Q07866 1-200, looked up)
chain: MYDNMSTMVYIKEDKLEKLTQDEIISKTKQVIQGLEALKNEHNSILQSLLETLKCLKKDDESNLVEEKSNMIRKSLEMLELGLSEAQVMMALSNHLNAVESEKQKLRAQVRRLCQENQWLRDELANTQQKLQKSEQSVAQLEEEKKHLEFMNQLKKYDDDISPSEDKDTDSTKEPLDDLFPNDEDDPGQGIQQQHSSAAA
notes: kinesin light chain 1, human, aa 1-200 (N-terminal coiled-coil part); also called N-terminal domain of the KLC; source: pET28a construct (E. coli BL21-CodonPlus (DE3)-RIPL), purified (Streptactin XT, SEC on Superdex 200)

What was measured:
[1] = molecular target: the molecule itself; assay: SEC-MALS; purified full-length KIF5 alone; BioSep SEC-s4000 column, GF150 buffer (25 mM HEPES-KOH, 150 mM KCl, 2 mM MgCl2)
[2] = molecular target: T1, KIF5B-Δhinge (Δ505-610)-mScarlet-StrepII; assay: TIRF microscopy on microtubules; 40 nM KIF5B (wild type, mutants or K420B) on MTs with or without 200 nM recombinant KLC1, KLC1-CC or KLC1-TPR added in trans; ATP; relative fluorescence intensity on MTs; settings: both partners purified

Binder | stoichiometry N [1] | binding result [2]
B1 | 2 | 
B2 |  | binds
